Assays:
RXFP2 S45A (human) [1] = biological target: RXFP2 S45A (human)
RXFP2 T44A (human) [2] = biological target: RXFP2 T44A (human)
RXFP2-F51A (human) [3] = biological target: RXFP2-F51A (human)
RXFP2-G42A (human) [4] = biological target: RXFP2-G42A (human)
[5] = biological target: Relaxin family peptide receptor 2 (RXFP2), wild type (human) (UniProt Q8WXD0)
RXFP2 D43A (human) = test: europium-labelled ligand saturation binding on whole cells (time-resolved fluorescence); HEK293T cells transiently transfected with receptor; increasing concentrations of Eu-INSL3 or Eu-H2 relaxin with or without 1 µM unlabeled ligand, 1 h incubation; one-site binding curves
RXFP2 S45A (human) [6] = test: as above
RXFP2 T44A (human) [7] = test: as above
RXFP2 W47A (human) = test: as above
RXFP2-F51A (human) [8] = test: as above
RXFP2-G42A (human) [9] = test: as above
RXFP2-G46A (human) = test: as above
[10] = biological target: Relaxin family peptide receptor 2 (RXFP2), wild type (human) (UniProt Q8WXD0); test: as above
[11] = biological target: RXFP1 LDLa-linker (human); test: NMR titration; RXFP1 LDLa-linker titrated with truncated relaxin (Supp Fig. 5)
RXFP2(1-65) P4F (human) = test: NMR titration; 2D 1H-15N HSQC; increasing concentrations of titrant against 50 µM 15N-labelled RXFP2(1-65) P4F; 25 °C, 50 mM imidazole, 10 mM CaCl2, pH 6.8

UniProt Q8WXD0, sequence (Q8WXD0 whole entry, the tested form may be a part): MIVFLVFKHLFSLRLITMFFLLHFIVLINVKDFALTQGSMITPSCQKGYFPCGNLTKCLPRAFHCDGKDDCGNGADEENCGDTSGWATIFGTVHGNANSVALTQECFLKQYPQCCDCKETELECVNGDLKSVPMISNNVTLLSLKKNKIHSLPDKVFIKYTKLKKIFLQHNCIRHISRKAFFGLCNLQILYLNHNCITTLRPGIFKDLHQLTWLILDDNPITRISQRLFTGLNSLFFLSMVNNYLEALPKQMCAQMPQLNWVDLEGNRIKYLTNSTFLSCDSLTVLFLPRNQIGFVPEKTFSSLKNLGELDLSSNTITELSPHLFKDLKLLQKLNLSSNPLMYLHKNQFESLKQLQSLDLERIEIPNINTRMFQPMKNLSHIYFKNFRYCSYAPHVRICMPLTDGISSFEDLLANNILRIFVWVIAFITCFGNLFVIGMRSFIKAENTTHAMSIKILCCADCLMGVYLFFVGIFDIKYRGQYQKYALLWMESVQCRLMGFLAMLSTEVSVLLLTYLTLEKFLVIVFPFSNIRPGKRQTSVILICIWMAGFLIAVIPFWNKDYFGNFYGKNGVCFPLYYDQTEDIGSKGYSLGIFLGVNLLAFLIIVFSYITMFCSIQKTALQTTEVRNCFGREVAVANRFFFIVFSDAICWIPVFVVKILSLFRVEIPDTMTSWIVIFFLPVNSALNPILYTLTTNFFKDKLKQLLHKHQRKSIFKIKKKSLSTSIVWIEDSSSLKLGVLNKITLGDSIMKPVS

## Europium (Eu3+)-labelled INSL3 (ligand)
RXFP2 S45A (human) [1]
  Emax: maximal cAMP response (pCRE beta-galactosidase reporter, HEK293T) to unlabelled INSL3 (% maximal RXFP2 activity): 92.2
  pEC50 of the cAMP response (pCRE beta-galactosidase reporter, HEK293T) to unlabelled INSL3: 10.1
RXFP2 T44A (human) [2]
  Emax: maximal cAMP response (pCRE beta-galactosidase reporter, HEK293T) to unlabelled INSL3 (% maximal RXFP2 activity): 98.7
  pEC50 of the cAMP response (pCRE beta-galactosidase reporter, HEK293T) to unlabelled INSL3: 10.5
RXFP2-F51A (human) [3]
  Emax: maximal cAMP response (pCRE beta-galactosidase reporter, HEK293T) to unlabelled INSL3 (% maximal RXFP2 activity): 39.8
  pEC50 of the cAMP response (pCRE beta-galactosidase reporter, HEK293T) to unlabelled INSL3: 9.36
RXFP2-G42A (human) [4]
  Emax: maximal cAMP response (pCRE beta-galactosidase reporter, HEK293T) to unlabelled INSL3 (% maximal RXFP2 activity): 39.5
  pEC50 of the cAMP response (pCRE beta-galactosidase reporter, HEK293T) to unlabelled INSL3: 8.98
[5]
  Emax: maximal cAMP response (pCRE beta-galactosidase reporter, HEK293T) to unlabelled INSL3 (% maximal RXFP2 activity): 100
  pEC50 of the cAMP response (pCRE beta-galactosidase reporter, HEK293T) to unlabelled INSL3: 9.99
RXFP2 D43A (human)
  Kd: 1.18 nM
RXFP2 S45A (human) [6]
  Kd: 1.05 nM
RXFP2 T44A (human) [7]
  Kd: 2.11 nM
RXFP2 W47A (human)
  Kd: 1.5 nM
RXFP2-F51A (human) [8]
  Kd: 1.55 nM
RXFP2-G42A (human) [9]
  Kd: 1.93 nM
RXFP2-G46A (human)
  Kd: 1.51 nM
[10]
  Kd: 1.07 nM

## Europium (Eu3+)-labelled H2 relaxin (ligand)
RXFP2 S45A (human) [1]
  Emax: maximal cAMP response (pCRE beta-galactosidase reporter, HEK293T) to unlabelled H2 relaxin, max value based on 1 µM activation: 100%
  pEC50 of the cAMP response (pCRE beta-galactosidase reporter, HEK293T) to unlabelled H2 relaxin: 9.03
RXFP2 T44A (human) [2]
  Emax: maximal cAMP response (pCRE beta-galactosidase reporter, HEK293T) to unlabelled H2 relaxin, max value based on 1 µM activation: 53%
  pEC50 of the cAMP response (pCRE beta-galactosidase reporter, HEK293T) to unlabelled H2 relaxin: 8.63
RXFP2-F51A (human) [3]
  Emax: maximal cAMP response (pCRE beta-galactosidase reporter, HEK293T) to unlabelled H2 relaxin, max value based on 1 µM activation: 18.8%
  pEC50 of the cAMP response (pCRE beta-galactosidase reporter, HEK293T) to unlabelled H2 relaxin: < 6
RXFP2-G42A (human) [4]
  Emax: maximal cAMP response (pCRE beta-galactosidase reporter, HEK293T) to unlabelled H2 relaxin, max value based on 1 µM activation: 75.2%
  pEC50 of the cAMP response (pCRE beta-galactosidase reporter, HEK293T) to unlabelled H2 relaxin: 7.98
[5]
  Emax: maximal cAMP response (pCRE beta-galactosidase reporter, HEK293T) to unlabelled H2 relaxin, max value based on 1 µM activation: 100%
  pEC50 of the cAMP response (pCRE beta-galactosidase reporter, HEK293T) to unlabelled H2 relaxin: 8.45
[10]
  Kd: 9.96 nM

## B5-29 [B-K9R,A-K9/17R] H2 relaxin (ligand)
[11]
  Kd: 90000 nM
RXFP2(1-65) P4F (human)
  Kd: 330000 nM

— publication PMC5468325
